Test: yeast display, Sf9 membrane polyspecificity reagent, FACS + sequencing; frameworks hold sequencing errors
Summary of the method: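 In a synthetic yeast display library (Saccharomyces cerevisiae BJ5465), nanobody expression was induced with galactose for 36–48 hours. FACS gates were set low and high (top ~1%) using anti-HA fluorescence for expression and streptavidin fluorescence for binding of the Sf9 membrane reagent. Each polyreactivity label is drawn from the gate of origin.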
In the case of “QVQLVESGGGLVQAGGSLRLSCAASGFILRAYAMGWYRQAPGKERELVAAITSATSTNYADSVKGRFTISRDNAKNTVYLQMNSLKPEDTAVYYCAADGGGGEFSYDSWGQGTQVTVSS”, the “polyreactivity (PSR sort gate)” value is reported as “low polyreactivity”.
With “QVQLVESGGGLVQAGGSLRLSCAASGFILRIYTMGWYRQAPGKERELVAAINWSGGRTYYADSVKGRFTISRDNAKNTVYLHMNSLKPEDTAVYYCAAVYGVSVSKYYYWGQGTQVTVSS” the “polyreactivity (PSR sort gate)” value was “high polyreactivity”.
In the case of “QVQLVESGGGLVQAGGSLRLSCAASGFILRRYTMGWYRQAPGKEREFVAGISWRGGSTYYADSVKGRFTISRDNAKNTVYLQMNSLKPEDTAVYYCAAETYQLTWVLYYYWGQGTQVTVSS”, the “polyreactivity (PSR sort gate)” value is reported as “high polyreactivity”.
With “QVQLVESGGGLVQAGGSLRLSCAASGFILRTNAMGWYRQAPGKERELVAAISVSGGRTYYADSVKGRFTISRDNAKNTVYLQMNSLKPEDTAVYYCAARDSTKLLSGYTHYYWGQGTQVTVSS” the “polyreactivity (PSR sort gate)” value was “high polyreactivity”.
With “QVQLVESGGGLVQAGGSLRLSCAASGFILRYYAMGWYRQAPGKERELVAAITRGGSTYDADSVKGRFTISRDNAKNTVYLQMNSLKPEDTAVYYFDRRVGYKFSYDYWGQGTQVTVSS” the “polyreactivity (PSR sort gate)” value was “high polyreactivity”.
In the case of “QVQLVESGGGLVQAGGSLRLSCAASGFILYGNAMGLYRQAPGKERELVAAISRRGGSTYYADSVKGRFTISRDNAKNTVYLQMNSLKPEDTAVYYCAKDGPGGGTRIYEYWGQGTLVTVSS”, the “polyreactivity (PSR sort gate)” value is reported as “high polyreactivity”.
In the case of “QVQLVESGGGLVQAGGSLRLSCAASGFILYRYAMGWYRQAPGKERELVAAISSGGRTYYADSVKGRFTISRDNAKNTVYLQMNSLKPEDTAVYYCNAAYKNSPYDYWGQGTQVTVSS”, the “polyreactivity (PSR sort gate)” value is reported as “high polyreactivity”.
With “QVQLVESGGGLVQAGGSLRLSCAASGFILYSYAMGWYRQAPGKERELVAAINSTGSTYYADSVKGRFTISRDNAKNTVYLQMNSLKPEDTAVYYCATDPWYQTDHSYDTPYYYWGQGTQVTVSS” the “polyreactivity (PSR sort gate)” value was “low polyreactivity”.
In the case of “QVQLVESGGGLVQAGGSLRLSCAASGFILYTYAMGWYRQAPGKERELVADIDSGDGTYYADSVKGRFTISRDNAKNTVYLQMNSLKPEDTAVYYCAAQVVTWSYVYDVPGYYRYDYWGQGTQVTVSS”, the “polyreactivity (PSR sort gate)” value is reported as “low polyreactivity”.
With “QVQLVESGGGLVQAGGSLRLSCAASGFILYYYAMGWYRQAPGKERELVAAISWSGDSTYYADSVKGRFTISRDNAKNTVYLQMNSLKPEDTAVYYCAATWQLTHRYYWGQGTQVTVSS” the “polyreactivity (PSR sort gate)” value was “low polyreactivity”.
In the case of “QVQLVESGGGLVQAGGSLRLSCAASGFIRTYAMGWYRQAPGKERELVAAITSSGGRTYYADSVKGRFTISRDNAKNTVYLQMNSLKPEDTAVYYCAAGLGRYLRYNYWGQGTQVTVSS”, the “polyreactivity (PSR sort gate)” value is reported as “high polyreactivity”.
For “QVQLVESGGGLVQAGGSLRLSCAASGFISAYYAMGWYRQAPAKERELVAGINSNGGSTYYADSVKGRFTISRDNAKNTVYLQMNSLKPEDTAVYYCNKRYRHLYYKSVGSYDYWGQGTQVTVSS”, the “polyreactivity (PSR sort gate)” value was “high polyreactivity”.
For “QVQLVESGGGLVQAGGSLRLSCAASGFISDGNYMGWYRQAPGKERELVAAISSGATTHYADSVKGRFTISRDNAKNTVYLQMNSLKPEDTAVYYCNRGDDWRYDYWGQGTQVTVSS”, the “polyreactivity (PSR sort gate)” value was “low polyreactivity”.
For “QVQLVESGGGLVQAGGSLRLSCAASGFISHKYAMGWYRHAHGKERELVAAISWSGTSTHYADSVKGRFTISRDNAKKTVYIQMKSLKPEDTAVYYCAARRYPVLKYDYWGEGTQVTVSS”, the “polyreactivity (PSR sort gate)” value was “high polyreactivity”.
For “QVQLVESGGGLVQAGGSLRLSCAASGFISKYYAMGRYRQAPGKERELVASISRDGSTSYADSVKGRFTISRDNAKNTVYLQMNSLKPEDTAVYYCAAPSYRTRYYYWGQGTQVTVSS”, the “polyreactivity (PSR sort gate)” value was “high polyreactivity”.
With “QVQLVESGGGLVQAGGSLRLSCAASGFISKYYAMGWSRQAPGKERELVASISRDGSTSYADSVKGRFTISRDNAKNTVYLQMNSLKPEDTAVYYCAAPRRWGDKYSFGYWGQGTQVTVSS” the “polyreactivity (PSR sort gate)” value was “high polyreactivity”.
With “QVQLVESGGGLVQAGGSLRLSCAASGFISKYYAMGWYRQAPGKERELVASISRDGSTSYADSVKGRFTISRDNAKNTVYLQMNSLKPEDTAVYYCAAPSYRTRYYYWGQGTQVTVSS” the “polyreactivity (PSR sort gate)” value was “high polyreactivity”.
With “QVQLVESGGGLVQAGGSLRLSCAASGFISPPYAMGWYRQAPGKVMELVAAISSNGGRTSYADSVKGRFTISRDNAKNTVYLQMNSLKPEDTAVYYCNAVYSLYYTRYNYWGQGTQETVSS” the “polyreactivity (PSR sort gate)” value was “high polyreactivity”.
With “QVQLVESGGGLVQAGGSLRLSCAASGFISPQNTMGWYRQAPGKERELVAAITSGGSTYYADSVKGRFTISRDNAKNTVYLQMNSLKPEDTAVYYCAARPYGTWTYGYWGQGTQVTVSS” the “polyreactivity (PSR sort gate)” value was “low polyreactivity”.
For “QVQLVESGGGLVQAGGSLRLSCAASGFISRFNSMGWYRKAPGKERELVAAISWYGGITYYADSVKGRFTISRDNAKNTVYLQMNSLKPEDTAVYYCNAGDHIRKRYGISATWGYGYGYWGQGTQVTVSS”, the “polyreactivity (PSR sort gate)” value was “high polyreactivity”.
For “QVQLVESGGGLVQAGGSLRLSCAASGFISRNAMGWYRQAPGKQRELVAGITRGGSTNYADSVKGRFTISRDNAKNTVYLHMNSLKPEYTAVYYFATRRRLKGLAYDYWGQGNQVTVSS”, the “polyreactivity (PSR sort gate)” value was “high polyreactivity”.
In the case of “QVQLVESGGGLVQAGGSLRLSCAASGFISSENAMGWYRQAPGKERELVAAISSGGSTNYADSVKGRFTISRDNAKNTVYLQMNSLKPEDTAVYYCAATLPGWYNEDDSWGQGTQVNVSS”, the “polyreactivity (PSR sort gate)” value is reported as “low polyreactivity”.
With “QVQLVESGGGLVQAGGSLRLSCAASGFISVRNAMGWYRQAPGKERELVAAISSGDTTDYADSVKGRFTISRDNAKNTVYLQMISLKPEDTAVYYCAAVYYGRYYYWGQGTQVTVSS” the “polyreactivity (PSR sort gate)” value was “low polyreactivity”.
With “QVQLVESGGGLVQAGGSLRLSCAASGFIVKYNAMAWYRQAPGKERELVAAISYRGTRTYYADSVKGRFTISRDNAKNTVYLQMNSLKPEDTAVYYCNAGLTYNHDPYDYWGQGTQVTVSS” the “polyreactivity (PSR sort gate)” value was “high polyreactivity”.
In the case of “QVQLVESGGGLVQAGGSLRLSCAASGFIYGANAMGWYRQAPGKERALVAAISWNGGRTYYADSVKGRFTISRDNAKKTVYLQMNSLKPEDTAVYYCNARSWYSFQPQDYWGQGTQVTVSW”, the “polyreactivity (PSR sort gate)” value is reported as “high polyreactivity”.
For “QVQLVESGGGLVQAGGSLRLSCAASGFIYGSNAMGWYRQAPGKERELVAAISRSGGSTYYADSVKGRFTISRDNAKNTVYLQMNSLKPEDTAVYYCNVDLWTFVYSWWSYDYWGQGTQVTVSS”, the “polyreactivity (PSR sort gate)” value was “high polyreactivity”.
With “QVQLVESGGGLVQAGGSLRLSCAASGFIYRDYVMGWYRQAPEKERELVAAISYRGGSTNYADSVKGRFTISRDNAMNTVFLQMNSLKPEDTSVYYCAADQVHKREYEYWGQGTQVTVSS” the “polyreactivity (PSR sort gate)” value was “low polyreactivity”.
For “QVQLVESGGGLVQAGGSLRLSCAASGFIYVYAMGWYRQPPRKERELVAAITATGDSTYYADSVKGRFTISRDNAKNTVYLQMNSLKPEDTAVYYCAAEWHYFVTMYYWGQGTQVTVSS”, the “polyreactivity (PSR sort gate)” value was “low polyreactivity”.
In the case of “QVQLVESGGGLVQAGGSLRLSCAASGFIYYRYAMGWYRQAPGKERELVAAISRSGGSTYYADSVKGRFTISRDNAKNTVYLQMNSLNPEDTAVYYCAARDPGGAVGAAFDSWGQCTQVTVSS”, the “polyreactivity (PSR sort gate)” value is reported as “low polyreactivity”.
In the case of “QVQLVESGGGLVQAGGSLRLSCAASGFLFYYYAMGWYRQAPGKEREFVAAIRWNGGSTYYADSVKGRFTISRDNAKNTVYLQMNSLKPEDTAVYYCAAVWVQTTYADLYKYYYWGQGTQVTVSS”, the “polyreactivity (PSR sort gate)” value is reported as “low polyreactivity”.
In the case of “QVQLVESGGGLVQAGGSLRLSCAASGFMFDGYAMGWYRQAPGKERELVAAINFSGGSTYYADSVKGRFTISRDNAKNTVYLQMNSLKPEETAVYYCNADLEWNWVQFGYGYWGQGTQVTVSS”, the “polyreactivity (PSR sort gate)” value is reported as “low polyreactivity”.
For “QVQLVESGGGLVQAGGSLRLSCAASGFMFSSYAMGWYRQAPGKERELVAAISWSDSSTYYADSVKGRFTISRDNAKNTVYLQMNSLKPEDTADYYCAAVIGPDVYYLLYDYWGQGTQVTVSS”, the “polyreactivity (PSR sort gate)” value was “low polyreactivity”.
With “QVQLVESGGGLVQAGGSLRLSCAASGFNFDYYAMGWYRPAPGKVRELVAAITSRGGSTYYADSVKGRFTISRDNAKTTVYLQMNILKPEDTAVYYCSALRRSAEYNYWGQGTQVTVSS” the “polyreactivity (PSR sort gate)” value was “high polyreactivity”.
In the case of “QVQLVESGGGLVQAGGSLRLSCAASGFNFGGNAMGWYRQAPGKERELVAAISGSGGSTYYADSVKGRFTISRDNAKNTVYLQMNSLKPEDTAVYYCAVKFPPRKSYGYYYWGQGTQVTVSS”, the “polyreactivity (PSR sort gate)” value is reported as “high polyreactivity”.
With “QVQLVESGGGLVQAGGSLRLSCAASGFNFRGYAMGWYRQAPGKERELVAAINSGDSTNYADSVKGRFTISRDNAKNTVYLQMNSLKPEDTAVYYCAASIYAALNGGPGYDYWGQGTQVTVSS” the “polyreactivity (PSR sort gate)” value was “low polyreactivity”.
In the case of “QVQLVESGGGLVQAGGSLRLSCAASGFNFRYNTMGWYRKAPRKERELVAAISVSGARTYYADSVKGRFTISRDNAKNTVYLQMNSLKPEDTAVFYCNRRYTFYSRYNNDYWGQGTQVTVSS”, the “polyreactivity (PSR sort gate)” value is reported as “high polyreactivity”.
In the case of “QVQLVESGGGLVQAGGSLRLSCAASGFNFSKYAMGWYRQAPGKERELVARINYNGGSTYYADSVKGRFTISRDNAKNTVYLQMNSLKPEDTAVYYCALVWRFSTRYYYWGQGTQVTVSS”, the “polyreactivity (PSR sort gate)” value is reported as “high polyreactivity”.
With “QVQLVESGGGLVQAGGSLRLSCAASGFNFVHYAMGWYRPAPGKDRELVAAISKRGGTTYYADSVKGRFTISRDNAKNTVYLQMNSLKPEDSAVYYCNADVTNWEDDYYYWGQGTQVNVSS” the “polyreactivity (PSR sort gate)” value was “high polyreactivity”.
For “QVQLVESGGGLVQAGGSLRLSCAASGFNFVSYAMGWYRKAPGKERELVAVIDNSDGDTYYADSVKGRFTISRDNAKNTVYLQMNSLKPEDTAVYYCARDVSARGYLPFDYWGQGTQVTVSS”, the “polyreactivity (PSR sort gate)” value was “low polyreactivity”.
With “QVQLVESGGGLVQAGGSLRLSCAASGFNFVYYAMGWYREAPGKERELVAVISWSGGSTNYADSVKGRFTISRDNAKNTVYLQMNSLKPEDTAVYYCAADAYAYTPYYGYRVDYWGQGTQVTVSS” the “polyreactivity (PSR sort gate)” value was “high polyreactivity”.
With “QVQLVESGGGLVQAGGSLRLSCAASGFNFWRNAMGWYRQAPGKERELVAVITWSGGRTYYADSVKGRFTFSRDNAKNSVYLQMNSLKPEDSAVYYCSTEIVGPHFDYWGQGTQVTVSS” the “polyreactivity (PSR sort gate)” value was “low polyreactivity”.

— the nanobody polyreactivity screen of Harvey et al. (2022)
